Laboratory results as given in patent CN114920842A (HUALAN GENE ENG CO LTD, dated 2022).
Where a chain is given by its changes, count along the chain named. Each block holds one binder with its values, some of them ahead of it.

Target: T1, 重组人PLVAP/PV-1蛋白 (human, UniProt Q9BX97 49-442, limits assumed)
T1 construct: Bought reagent (Abcam); Coupled to a CM5 chip in the SPR assay; also called 质膜膜泡关联蛋白
T1 sequence (looked up): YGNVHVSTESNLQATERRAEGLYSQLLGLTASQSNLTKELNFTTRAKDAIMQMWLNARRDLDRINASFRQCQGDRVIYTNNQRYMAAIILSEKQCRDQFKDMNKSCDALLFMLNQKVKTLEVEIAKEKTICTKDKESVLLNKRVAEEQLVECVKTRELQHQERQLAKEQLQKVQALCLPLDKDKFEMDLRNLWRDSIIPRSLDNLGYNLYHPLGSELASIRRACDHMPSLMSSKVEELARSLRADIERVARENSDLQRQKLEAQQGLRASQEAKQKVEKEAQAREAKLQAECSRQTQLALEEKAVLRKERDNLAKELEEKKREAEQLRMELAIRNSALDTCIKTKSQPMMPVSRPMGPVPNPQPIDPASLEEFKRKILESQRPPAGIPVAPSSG
Assay: SPR, Biacore T200, PV-1 coupled to CM5 chip, antibody as analyte, 25℃, 1:1 fit

B1: HLPV-P01 (antibody, IgG1, V domains shown)
VH: QVQLVQSGAEVKKPGASVKVSCKASGYTFTDYYMYWVRQAPGQGLEWIGEINPTQGDVNFNEMFKSRVTMTVDTSTSTAYMELSSLRSEDTAVYYCTSIFYWGQGTLVTVSS
VL: DIVMTQSPSSLSASVGDRVTITCKASQDIKYQLSWYQQKPGKAPKTLIYYATDLADGVPSRFSGSGSGQEFTLTISSLQPEDFATYYCVQHDDRPFTFGQGTKLEIK
notes: Full IgG1/kappa antibody; also called 中间抗体; not shown: human IgG1 heavy chain constant region, UniProtKB P01857.1; human Kappa light chain constant region, UniProtKB P01834.2
- 倍数 (fold against HLPV-P00): 7.31 fold

B2: HLPV-P08 (antibody, IgG1, V domains shown)
VH: B1 VH with S98T
VL: B1 VL with S34T, Q90S
notes: Full IgG1/kappa antibody; not shown: human IgG1 heavy chain constant region, UniProtKB P01857.1; human Kappa light chain constant region, UniProtKB P01834.2
- 倍数 (fold against HLPV-P00): 38.4 fold

B3: HLPV-P05 (antibody, IgG1, V domains shown)
VH: B1 VH
VL: B1 VL with S34T, D93N
notes: as for B2
- 倍数 (fold against HLPV-P00): 25.8 fold

B4: HLPV-P00 (antibody, IgG1, V domains shown)
VH: B1 VH with F100H
VL: B1 VL with Y31T, V89L
notes: Full IgG1/kappa antibody, VH fused at its C-terminus to the IgG1 constant region, VL to the kappa constant region; expressed in ExpiCHO-S; also called 原始抗体; not shown: human IgG1 heavy chain constant region, UniProtKB P01857.1; human Kappa light chain constant region, UniProtKB P01834.2
- 倍数 (fold against HLPV-P00): 1 fold

B7: HLPV-P02 (antibody, IgG1, V domains shown)
VH: B1 VH with T28V, Q55T
VL: B1 VL with A51S
notes: as for B2
- 倍数 (fold against HLPV-P00): 6.29 fold

B8: HLPV-P06 (antibody, IgG1, V domains shown)
VH: B1 VH with D31A, Q55S
VL: B1 VL with D53F
notes: as for B2
- 倍数 (fold against HLPV-P00): 8.95 fold

B9: HLPV-P03 (antibody, IgG1, V domains shown)
VH: B1 VH with T30E, I51V
VL: B1 VL with D53F
notes: as for B2
- 倍数 (fold against HLPV-P00): 13.4 fold

B10: HLPV-P07 (antibody, IgG1, V domains shown)
VH: B1 VH with T30E, N59R
VL: B1 VL with D53Y
notes: as for B2
- 倍数 (fold against HLPV-P00): 11.4 fold

B14: HLPV-P04 (antibody, IgG1, V domains shown)
VH: B1 VH with T30R, Q55T
VL: B1 VL with D53S
notes: as for B2
- 倍数 (fold against HLPV-P00): 14 fold

B15: HLPV-P09 (antibody, IgG1, V domains shown)
VH: B1 VH with S98T
VL: B1 VL with K30G, D92Y
notes: as for B2
- 倍数 (fold against HLPV-P00): 36.8 fold

Now from value to binder:

- 倍数 (fold against HLPV-P00): 4.1 fold
B5: HLPV-P12 (antibody, IgG1, V domains shown)
VH: B1 VH with T54S
VL: B1 VL with L54R
notes: as for B2

- 倍数 (fold against HLPV-P00): 23.4 fold
B6: HLPV-P10 (antibody, IgG1, V domains shown)
VH: B1 VH
VL: B1 VL with S34T, D92S
notes: as for B2

- 倍数 (fold against HLPV-P00): 8.58 fold
B11: HLPV-P14 (antibody, IgG1, V domains shown)
VH: B1 VH with D31N, Q55S
VL: B1 VL with T52G
notes: as for B2

- 倍数 (fold against HLPV-P00): 40.5 fold
B12: HLPV-P11 (antibody, IgG1, V domains shown)
VH: B1 VH with S98T
VL: B1 VL with T97S
notes: as for B2

- 倍数 (fold against HLPV-P00): 9.29 fold
B13: HLPV-P13 (antibody, IgG1, V domains shown)
VH: B1 VH with T28V, Q55S
VL: B1 VL with T52G
notes: as for B2
